According to paper PMC11579972 (Small (Weinheim an Der Bergstrasse, Germany), 2024):

Key:
[1] = biological target: T1, An‐FD, Pro‐Asp‐(Phe‐Asp)5‐Pro; experiment: MST
T1 peptide: PDFDFDFDFDFDP

[2] = biological target: T1, An‐FD, Pro‐Asp‐(Phe‐Asp)5‐Pro; experiment: ITC
[3] = biological target: T2, Sc‐FD (a scrambled version of An‐FD); experiment: ITC
T2 peptide: DFFPDDPFDFFDD

[4] = biological target: T3, An‐FD, Pro‐Asp‐(Phe‐Asp)5‐Pro; experiment: other fluorescence titration
T3 chain: PDFDFDFDFDFDP

B1: Cat‐FK, Pro‐Lys‐(Phe‐Lys)5‐Pro (peptide)
peptide: PKFKFKFKFKFKP
Binder B1 has a Kd [1] of 50 ± 8 µM, a Kd [2] of roughly 40 µM and a dH [2] of -8.37 kcal/mol. For the same binder, the “stoichiometry N” value [2] was 1.12, the dH [3] was 1.43 ± 2.87 kcal/mol and the “critical coassembly concentration (CCC) at 25% An-FD” value [4] was 0.096, 0.058, and 0.14 mM. For the same binder, the “critical coassembly concentration (CCC) at 50% An-FD” value [4] was 0.096, 0.058, and 0.14 mM and the “critical coassembly concentration (CCC) at 75% An-FD” value [4] was 0.096, 0.058, and 0.14 mM.
